Measurements as given in PMC8647176, “Helical filament structure of the DREP3 CIDE domain reveals a unified mechanism of CIDE-domain assembly” (Acta Crystallographica. Section D, Structural Biology, 2021).

Target: the molecule itself
Assay: SEC; Superdex 200 Increase 10/300 GL, 20 mM Tris-HCl pH 7.9, 500 mM NaCl; also series at 1, 5 and 15 mg ml^-1 protein and at four NaCl concentrations

B1: DREP3 CIDE domain (DNA fragmentation factor-related protein 3, residues Phe112-Asp195) (domain or fragment, Drosophila melanogaster, UniProt Q0E9B7 112-195, looked up)
chain: FAQLDNSKPFKIKDITRNIRKAVVATTLSELRTKVSLKFERAQPAIHLDCDGTEVDDEEYFSTLEPNAELIAVFPGEQWRDPSD
notes: DREP3 (DNA fragmentation factor-related protein 3), Drosophila melanogaster, UniProt Q0E9B7, CIDE domain, residues Phe112-Asp195; Cloned with NdeI and XhoI into pET-21a; The final model of PDB 7v6e holds residues 117-193; also called wild-type DREP3 CIDE domain; WT DREP3 CIDE domain; source: E. coli BL21 (DE3), purified (Ni-NTA, SEC)
binding result: binds
